How the values were obtained:
4H492-bA = molecular target: T1, 4H492-bA; test: two-hybrid library CCNG1;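 also: natural log of median RNA to DNA barcode read ratio; higher means stronger binding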
T1 chain: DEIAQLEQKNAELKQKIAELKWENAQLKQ

4H2717-bA = molecular target: T2, 4H2717-bA; test: two-hybrid library CCNG1;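 also: natural log of median RNA to DNA barcode read ratio; higher means stronger binding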
T2 chain: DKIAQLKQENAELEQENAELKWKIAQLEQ

4H319-bN = molecular target: T3, 4H319-bN; test: two-hybrid library CCNG1;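 also: natural log of median RNA to DNA barcode read ratio; higher means stronger binding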
T3 chain: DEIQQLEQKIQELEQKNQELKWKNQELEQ

4H348-bA = molecular target: T4, 4H348-bA; test: two-hybrid library CCNG1;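 also: natural log of median RNA to DNA barcode read ratio; higher means stronger binding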
T4 chain: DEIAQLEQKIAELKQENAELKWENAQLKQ

4H319-bA = molecular target: T5, 4H319-bA; test: two-hybrid library CCNG1;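 also: natural log of median RNA to DNA barcode read ratio; higher means stronger binding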
T5 chain: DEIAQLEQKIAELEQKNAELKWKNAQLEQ

4H2915-bA = molecular target: T6, 4H2915-bA; test: two-hybrid library CCNG1;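 also: natural log of median RNA to DNA barcode read ratio; higher means stronger binding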
T6 chain: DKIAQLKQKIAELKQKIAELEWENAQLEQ

4H3277-bA = molecular target: T7, 4H3277-bA; test: two-hybrid library CCNG1
T7 chain: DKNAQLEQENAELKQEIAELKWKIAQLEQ

4H2839-bA = molecular target: T8, 4H2839-bA; test: two-hybrid library CCNG1
T8 chain: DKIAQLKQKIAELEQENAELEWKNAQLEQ

4H2859-bH = molecular target: T9, 4H2859-bH; test: two-hybrid library CCNG1
T9 chain: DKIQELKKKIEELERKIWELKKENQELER

4H477-bA = molecular target: T10, 4H477-bA; test: two-hybrid library CCNG1
T10 chain: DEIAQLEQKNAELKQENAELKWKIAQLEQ

4H741-bA = molecular target: T11, 4H741-bA; test: two-hybrid library CCNG1
T11 chain: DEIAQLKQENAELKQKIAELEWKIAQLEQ

4H40-bA = molecular target: T12, 4H40-bA; test: two-hybrid library CCNG1
T12 chain: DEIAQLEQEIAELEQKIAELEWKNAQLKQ

O6-bP = molecular target: T13, O6-bP; test: two-hybrid library CCNG1
T13 chain: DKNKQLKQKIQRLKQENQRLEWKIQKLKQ

4H3057-bA = molecular target: T14, 4H3057-bA; test: two-hybrid library CCNG1
T14 chain: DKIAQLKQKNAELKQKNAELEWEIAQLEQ

4H2692-bA = molecular target: T15, 4H2692-bA; test: two-hybrid library CCNG1
T15 chain: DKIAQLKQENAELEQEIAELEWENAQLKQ

4H3298-bA = molecular target: T16, 4H3298-bA; test: two-hybrid library CCNG1
T16 chain: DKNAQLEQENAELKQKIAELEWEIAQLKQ

P2-AA-1HAA-D = molecular target: T17, P2-AA-1HAA-D; test: two-hybrid library CCmax; settings: mean of both orientations
T17 chain: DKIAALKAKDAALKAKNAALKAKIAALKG

P2-AA = molecular target: T18, P2-AA; test: two-hybrid library CCmax; settings: mean of both orientations
T18 chain: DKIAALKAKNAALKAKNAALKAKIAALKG

P2-AA-1HAA-V = molecular target: T19, P2-AA-1HAA-V; test: two-hybrid library CCmax; settings: mean of both orientations
T19 chain: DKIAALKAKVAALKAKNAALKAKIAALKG

P2-AA-1HAA-E = molecular target: T20, P2-AA-1HAA-E; test: two-hybrid library CCmax; settings: mean of both orientations
T20 chain: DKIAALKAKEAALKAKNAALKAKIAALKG

P2-AA-1HAA-T = molecular target: T21, P2-AA-1HAA-T; test: two-hybrid library CCmax; settings: mean of both orientations
T21 chain: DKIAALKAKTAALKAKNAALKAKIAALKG

P2-AA-1HAA-I = molecular target: T22, P2-AA-1HAA-I; test: two-hybrid library CCmax; settings: mean of both orientations
T22 chain: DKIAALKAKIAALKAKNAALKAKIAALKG

4H3298-bN = molecular target: T23, 4H3298-bN; test: two-hybrid library CCNG1
T23 chain: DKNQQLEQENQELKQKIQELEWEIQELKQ

4H591-bN = molecular target: T24, 4H591-bN; test: two-hybrid library CCNG1
T24 chain: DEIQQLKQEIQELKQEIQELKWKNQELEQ

4H906-bN = molecular target: T25, 4H906-bN; test: two-hybrid library CCNG1
T25 chain: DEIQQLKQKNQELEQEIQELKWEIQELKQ

4H3462-bN = molecular target: T26, 4H3462-bN; test: two-hybrid library CCNG1
T26 chain: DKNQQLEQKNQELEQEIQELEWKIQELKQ

4H3497-bN = molecular target: T27, 4H3497-bN; test: two-hybrid library CCNG1
T27 chain: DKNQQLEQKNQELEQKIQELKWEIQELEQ

4H3926-bN = molecular target: T28, 4H3926-bN; test: two-hybrid library CCNG1
T28 chain: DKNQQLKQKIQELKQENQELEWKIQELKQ

4H3628-bN = molecular target: T29, 4H3628-bN; test: two-hybrid library CCNG1
T29 chain: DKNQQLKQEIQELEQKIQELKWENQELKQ

4H626-bN = molecular target: T30, 4H626-bN; test: two-hybrid library CCNG1
T30 chain: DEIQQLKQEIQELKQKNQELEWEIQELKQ

4H3613-bN = molecular target: T31, 4H3613-bN; test: two-hybrid library CCNG1
T31 chain: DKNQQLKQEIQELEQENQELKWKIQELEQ

4H349-bA = molecular target: T32, 4H349-bA; test: two-hybrid library CCNG1
T32 chain: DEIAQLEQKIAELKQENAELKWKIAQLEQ

4H3381-bA = molecular target: T33, 4H3381-bA; test: two-hybrid library CCNG1
T33 chain: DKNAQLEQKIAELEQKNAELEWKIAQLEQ

4H626-bA = molecular target: T34, 4H626-bA; test: two-hybrid library CCNG1
T34 chain: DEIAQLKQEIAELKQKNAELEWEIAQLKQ

4H967-bN = molecular target: T35, 4H967-bN; test: two-hybrid library CCNG1
T35 chain: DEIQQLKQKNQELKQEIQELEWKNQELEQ

4H3364-bA = molecular target: T36, 4H3364-bA; test: two-hybrid library CCNG1
T36 chain: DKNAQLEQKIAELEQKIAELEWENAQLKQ

4H3041-bA = molecular target: T37, 4H3041-bA; test: two-hybrid library CCNG1
T37 chain: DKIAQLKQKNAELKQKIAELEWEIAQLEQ

4H932-bA = molecular target: T38, 4H932-bA; test: two-hybrid library CCNG1
T38 chain: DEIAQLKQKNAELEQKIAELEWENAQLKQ

4H2931-bA = molecular target: T39, 4H2931-bA; test: two-hybrid library CCNG1
T39 chain: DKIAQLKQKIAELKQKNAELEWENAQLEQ

4H730-bA = molecular target: T40, 4H730-bA; test: two-hybrid library CCNG1
T40 chain: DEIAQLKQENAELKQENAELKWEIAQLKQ

4H796-bA = molecular target: T41, 4H796-bA; test: two-hybrid library CCNG1
T41 chain: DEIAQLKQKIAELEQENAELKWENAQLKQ

4H3297-bA = molecular target: T42, 4H3297-bA; test: two-hybrid library CCNG1
T42 chain: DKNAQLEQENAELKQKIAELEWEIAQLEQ

4H56-bA = molecular target: T43, 4H56-bA; test: two-hybrid library CCNG1
T43 chain: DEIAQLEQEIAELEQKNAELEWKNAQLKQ

4H2760-bN = molecular target: T44, 4H2760-bN; test: two-hybrid library CCNG1
T44 chain: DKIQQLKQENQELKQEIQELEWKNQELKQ

4H2760-bA = molecular target: T45, 4H2760-bA; test: two-hybrid library CCNG1
T45 chain: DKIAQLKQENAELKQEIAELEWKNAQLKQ

4H2859-bA = molecular target: T46, 4H2859-bA; test: two-hybrid library CCNG1
T46 chain: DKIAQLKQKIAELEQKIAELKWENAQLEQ

4H949-bA = molecular target: T47, 4H949-bA; test: two-hybrid library CCNG1
T47 chain: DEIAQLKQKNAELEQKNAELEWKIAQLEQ

B1: 4H2692-bA (peptide)
chain: DKIAQLKQENAELEQEIAELEWENAQLKQ
Q: Which results are given for B1?
A: interaction score (4H492-bA): 2.26; interaction score (4H2717-bA): -0.0486; interaction score (4H319-bN): 0.192; interaction score (4H348-bA): -1.58; interaction score (4H319-bA): -0.498; interaction score (4H2915-bA): 0.654; interaction score (4H3277-bA): -0.458; interaction score (4H2839-bA): -1.15; interaction score (4H2859-bH): -0.0963; interaction score (4H477-bA): -1.06; interaction score (4H741-bA): -0.251; interaction score (4H40-bA): -0.113; interaction score (O6-bP): 0.95; interaction score (4H3057-bA): -0.734; interaction score (4H2692-bA): -0.461; interaction score (4H3298-bA): 1.59

B2: P1-AA-1HAA-V (peptide)
chain: DEIAALEAEVAALEAENAALEAEIAALEG
Q: B2 was tested. Which interaction score (P2-AA-1HAA-D) did it give?
A: Its interaction score is 1.95.

Q: What about the interaction score (P2-AA) of the same binder?
A: Its interaction score is 2.01.

Q: And the interaction score (P2-AA-1HAA-V)?
A: The interaction score was 2.01.

Q: What about the interaction score (P2-AA-1HAA-E) of the same binder?
A: The interaction score was 1.98.

Q: What about the interaction score (P2-AA-1HAA-T) of the same binder?
A: Its interaction score is 2.16.

Q: What about the interaction score (P2-AA-1HAA-I) of the same binder?
A: Its interaction score is 2.11.

B3: 4H3298-bN (peptide)
chain: DKNQQLEQENQELKQKIQELEWEIQELKQ
Q: Which interaction score (4H3298-bN) does the source give for B3 here?
A: Its interaction score is -2.82.

Q: And the interaction score (4H591-bN)?
A: Its interaction score is -0.882.

Q: What about the interaction score (4H906-bN) of the same binder?
A: The interaction score was -0.217.

Q: What about the interaction score (4H3462-bN) of the same binder?
A: The interaction score was -0.0887.

Q: What about the interaction score (4H3497-bN) of the same binder?
A: Its interaction score is -1.06.

Q: And the interaction score (4H3926-bN)?
A: Its interaction score is -1.32.

Q: What about the interaction score (4H3628-bN) of the same binder?
A: Its interaction score is -0.916.

Q: And the interaction score (4H626-bN)?
A: Its interaction score is -1.27.

Q: And the interaction score (4H3613-bN)?
A: The interaction score was -1.42.

B4: 4H2760-bA (peptide)
chain: DKIAQLKQENAELKQEIAELEWKNAQLKQ
Q: Which results are given for B4?
A: interaction score (4H349-bA): -0.95; interaction score (4H3381-bA): -0.726; interaction score (4H626-bA): -2.94; interaction score (4H967-bN): -2.38; interaction score (4H3364-bA): 0.448; interaction score (4H3041-bA): 0.518; interaction score (4H932-bA): 0.295; interaction score (4H2931-bA): -0.0923; interaction score (4H730-bA): -0.287; interaction score (4H796-bA): -0.576; interaction score (4H3297-bA): 1.18; interaction score (4H56-bA): -1.54; interaction score (4H2760-bN): -1.33; interaction score (4H2760-bA): 0.895; interaction score (4H2859-bA): 0.0768; interaction score (4H949-bA): -1.14
